Measurements reported in patent US9732101B2, “Bioreversible boronates for delivery of molecules into cells” (WISCONSIN ALUMNI RESEARCH FOUNDATION, priority 2012, dated 2017).

Experiments:
[1] = test system: HeLa cells; test: Cellular internalization by flow cytometry; assay type: cell-based; conditions: for increase in cellular uptake into HeLa cells: 5 μM, 4 h, relative to unmodified lysozyme; for effect of fructose on enhancement of cellular uptake into HeLa cells: fructose 250 mM
Procedure: Cell lines were obtained from American Type Culture Collection (Manassas, Va.) and were maintained according to the recommended guidelines. Cells were grown in a cell culture incubator at 37° C. and 5% CO2 in flat-bottomed culture flasks. Cell media was supplemented with 10% (v/v) GIBCO fetal bovine serum (FBS), 100 units/mL penicillin, and 100 μg/mL streptomycin in the appropriate cellular media for HeLa cells: DMEM, high glucose (Invitrogen, Carlsbad, Calif.). Cells were counted by hemocytometry for dispensing into 12-well plates (Corning Costar, Lowell, Mass.).
BODIPY-FL was excited with a 488 nm solid-state laser and the emission was collected with a 530/30 bandpass filter. At least 10,000 cellular events were acquired for each sample. Data were analyzed using FlowJo 8.1.3 (Treestar, Ashland, Oreg.).
The day prior to the experiment, 1×10^5HeLa cells/well were plated in 12 well plates. The day of the experiment, the appropriate amount of fructose was dissolved into the cellular medium to obtain a final 250 mM fructose concentration, then it was sterile filtered with a 0.45 μm Whatman (Piscataway, N.J.) syringe filter. Non-fructose containing medium was likewise sterile filtered to maintain consistency between the experimental groups. Stock solutions of fluorescently labeled proteins were diluted into the cell culture to a final concentration of 5 μM. proteins were incubated with cells for four hours, then the cells were rinsed twice with PBS, removed from the cell culture plate with trypsin, placed in flow cytometry tubes containing 80 μL of FBS (to ensure cell viability), and incubated on ice until analyzed by flow cytometry. Final fluorescence values were divided by the percent fluorophore labeling of the protein to determine the corrected value of fluorescence. Experiments were run in triplicate (except for PBA-boronated lysozyme, which was in duplicate) and the data is reported as the mean±standard deviation normalized to the wild type protein uptake.
Flow cytometry experiments were conducted as described in Example 11 with Fluorescein-conjugated NeutrAvidin and Boronated Fluorescein-conjugated NeutrAvidin (boronated by complexation to the PBA-boronated Biotin-peptide conjugate) in HeLa cells.

[2] = test system: Pro-5 cells; test: Cellular internalization by flow cytometry; assay type: cell-based, Chinese hamster
Procedure: (§1) Cell lines were obtained from American Type Culture Collection (Manassas, Va.) and were maintained according to the recommended procedures. Cells were grown in a cell culture incubator at 37° C. under CO2 (5% v/v) in flat-bottomed culture flasks. Cell medium was supplemented with GIBCO fetal bovine serum (FBS) (10% v/v), penicillin (100 units/mL), and streptomycin (100 μg/mL) in the appropriate cellular medium as follows: Pro-5, MEM α+ribonucleosides+deoxyribonucleosides; Lec-2, MEM α-ribonucleosides-deoxyribonucleosides; and K562, RPMI 1640. Cells were counted by hemocytometry for dispensing into 12-well plates (Corning Costar, Lowell, Mass.) or 8-well chambered coverglass slides (Nuc Lab-Tek II, Thermo Scientific).
(§2) BODIPY-FL was excited with a 488 nm solid-state laser and the emission was collected with a 530/30 bandpass filter. To collect the most reproducible data, for every flow cytometry experiment, the sensitivity (voltage) of the photomultiplier tube was set for all data collections using mid-range Rainbow beads from Spherotech (Lake Forest, Ill.) to a predetermined fluorescence target value. At least 10,000 cellular events were acquired for each sample. Data were analyzed using FlowJo 8.1.3 (Treestar, Ashland, Oreg.).
(§3) The day prior to an experiment, Pro-5 and Lec-2 cells were plated in 12-well plates at 1×10^5 cells/well. The day of the experiment, the appropriate amount of fructose was dissolved into the cellular medium to obtain a final fructose concentration of 250 mM, and the medium was passed through a 0.45-μm syringe filter from Whatman (Piscataway, N.J.). Non-fructose-containing medium was filtered likewise. Stock solutions of fluorescently labeled ribonucleases were diluted into the cell culture to a final concentration of 5 μM. Ribonucleases were incubated with cells for 4 h. Cells were then rinsed with PBS (2×400 μL), removed from the cell culture plate with trypsin (400 μL, 0.05% (1×) with EDTA; Invitrogen, Carlsbad, Calif.), placed in flow cytometry tubes containing 80 μL of FBS, and incubated on ice until analyzed by flow cytometry. Final fluorescence values were divided by the percent fluorophore labeling of the ribonuclease to determine the corrected value of fluorescence. Experiments were run twice in triplicate unless otherwise indicated. Data is illustrated in FIG. 4A and FIG. 4C.

[3] = test system: Lec-2 cells; test: Cellular internalization by flow cytometry; assay type: cell-based, Chinese hamster
Procedure: as §1, §2, §3

[4] = test system: K-562 cells; test: Cell-proliferation assay, CyQUANT NF; assay type: cell-based, human; conditions: 48 h, serum-free RPMI 1640, read-out: IC50, inhibition of K-562 cell proliferation
Procedure: The effect of unmodified G88R RNase A and TMLB-G88R RNase A on the proliferation of K-562 cells was assayed using a CyQUANT® NF Cell Proliferation Assay Kit (Invitrogen). Briefly, 5×10^4 cells/mL were added to each well of a 96-well plate in 100 μL of serum-free RPMI 1640 medium. Cells were incubated with G88R RNase A or TMLB-G88R RNase A for 48 h, with PBS and H2O2 serving as negative and positive controls, respectively. Cells were then washed and incubated in CyQUANT® reagent for 30 min and fluorescence intensity was measured with excitation at ˜485 nm and emission detection at ˜530 nm. Data are the average of two measurements for each concentration, and the entire experiment was repeated in triplicate. The results are shown as the percentage of dye incorporated relative to control cells treated with PBS. Values for IC50 were calculated by fitting the curves by nonlinear regression to the equation: y=100%/(1+10^(log(IC50)-log [ribonuclease])h), where y is the total DNA synthesis following the CyQUANT dye pulse and h is the slope of the curve (FIG. 28).

[5] = Hydrolysis of labeled protein by cell lysate; assay type: in vitro ADME, Chinese hamster; conditions: CHO K1 cell lysate, ambient temperature, 12 h, MALDI-TOF
Procedure: CHO K1 cells were grown to confluence in a 10-cm^2 dish before their collection and lysis with M-PER (Thermo Fisher Scientific). The presence of esterase activity in the lysate was verified by a colorimetric assay using p-nitrophenyl acetate (data not shown). A solution of TMLB-GFP (10 μg) was added to 200 μL of CHO K1 cell lysate, and the reaction mixture was nutated at ambient temperature for 12 h. The GFP was subsequently purified with HisPur™ Ni-NTA Magnetic Beads (Thermo Fisher Scientific).

[6] = Hydrolysis of labeled protein by cell lysate; assay type: in vitro ADME, human; conditions: K-562 cell lysate, ambient temperature, 12 h, MALDI-TOF
Procedure: K-562 cells were grown to confluence in a T75 flask before their collection and lysis with M-PER from Thermo Fisher Scientific. The presence of esterase activity in the lysate was verified by a colorimetric assay using p-nitrophenyl acetate (data not shown). A solution of esterified FLAG-RNase A (10 μg) was added to 200 μL of K-562 cell lysate, and the reaction mixture was nutated at ambient temperature for 12 h. FLAG-RNase A was purified with anti-FLAG® M2 Magnetic Beads from Sigma-Aldrich.

[7] = 5 μM, 4 h, relative to unmodified RNase A

Boronated Fluorescein-conjugated NeutrAvidin: Fluorescein-conjugated NeutrAvidin boronated by complexation to the PBA-boronated Biotin-peptide conjugate
increase in internalization in HeLa cells ([1]; relative to unmodified Fluorescein-conjugated NeutrAvidin): about 2 fold

benzoboroxole-boronated lysozyme: chicken egg white lysozyme conjugated with 5-amino-2-hydroxymethylphenylboronic acid, on average 2.3±1.1 per lysozyme
increase in cellular uptake into HeLa cells [1]: about 4 fold | effect of fructose on enhancement of cellular uptake into HeLa cells [1]: decreased

PBA-boronated lysozyme: chicken egg white lysozyme conjugated with 3-aminophenyboronic acid, on average 2.6±1.7 PBA
increase in cellular uptake into HeLa cells [1]: about 20 fold | effect of fructose on enhancement of cellular uptake into HeLa cells [1]: decreased

B1: PBA-boronated RNase A: RNase A conjugated with 3-aminophenylboronic acid, on average 5.3±2.3 PBA per protein (conjugate, UniProt P61823 27-150, looked up)
Ribonuclease pancreatic: KETAAAKFERQHMDSSTSAASSSNYCNQMMKSRNLTKDRCKPVNTFVHESLADVQAVCSQKNVACKNGQTNCYQSYSTMSITDCRETGSSKYPNCAYKTTQANKHIIVACEGNPYVPVHFDASV
modifications: 3-aminophenylboronic acid conjugates
notes: RNase A conjugated with 3-aminophenylboronic acid, on average 5.3±2.3 PBA per protein
increase in cellular uptake [2, 7]: 2.5-3 fold | effect of fructose on enhancement of cellular uptake ([2]; fructose 0.25 M): eliminated | increase in cellular uptake [3, 7]: 2.5-3 fold | effect of fructose on enhancement of cellular uptake ([3]; fructose 0.25 M): eliminated

B2: G88R RNase A: cytotoxic G88R variant of ribonuclease A (protein, UniProt P61823 27-150, looked up, variant G88R)
Ribonuclease pancreatic: KETAAAKFERQHMDSSTSAASSSNYCNQMMKSRNLTKDRCKPVNTFVHESLADVQAVCSQKNVACKNGQTNCYQSYSTMSITDCRETRSSKYPNCAYKTTQANKHIIVACEGNPYVPVHFDASV
IC50 [4]: 6.4 ± 0.1 µM

B3: TMLB-labeled G88R RNase A: G88R RNase A labeled with TMLB-NHS ester, 2±1 labels per protein (conjugate, UniProt P61823 27-150, looked up, variant G88R)
Ribonuclease pancreatic: KETAAAKFERQHMDSSTSAASSSNYCNQMMKSRNLTKDRCKPVNTFVHESLADVQAVCSQKNVACKNGQTNCYQSYSTMSITDCRETRSSKYPNCAYKTTQANKHIIVACEGNPYVPVHFDASV
modifications: TMLB ester labels
notes: G88R RNase A labeled with TMLB-NHS ester, 2±1 labels per protein
reversibility of labeling: removal of labels by cell lysate [5]: removed all of the labels | IC50 [4]: 3.5 ± 0.8 µM

B4: esterified FLAG-RNase A: FLAG-RNase A labeled with TMLB-NHS ester, 1.6±0.7 labels per protein (conjugate, UniProt P61823 27-150, looked up)
Ribonuclease pancreatic: KETAAAKFERQHMDSSTSAASSSNYCNQMMKSRNLTKDRCKPVNTFVHESLADVQAVCSQKNVACKNGQTNCYQSYSTMSITDCRETGSSKYPNCAYKTTQANKHIIVACEGNPYVPVHFDASV
modifications: FLAG tag; TMLB ester labels
notes: FLAG-RNase A labeled with TMLB-NHS ester, 1.6±0.7 labels per protein
reversibility of labeling: removal of labels by cell lysate [6]: regeneration of unlabeled FLAG-RNase A was confirmed
